Tests used:
EPO receptor on cells = target: T1, EPO receptor on cells (human, UniProt P19235 25-508); assay: cell-based or functional assay
T1 sequence (looked up): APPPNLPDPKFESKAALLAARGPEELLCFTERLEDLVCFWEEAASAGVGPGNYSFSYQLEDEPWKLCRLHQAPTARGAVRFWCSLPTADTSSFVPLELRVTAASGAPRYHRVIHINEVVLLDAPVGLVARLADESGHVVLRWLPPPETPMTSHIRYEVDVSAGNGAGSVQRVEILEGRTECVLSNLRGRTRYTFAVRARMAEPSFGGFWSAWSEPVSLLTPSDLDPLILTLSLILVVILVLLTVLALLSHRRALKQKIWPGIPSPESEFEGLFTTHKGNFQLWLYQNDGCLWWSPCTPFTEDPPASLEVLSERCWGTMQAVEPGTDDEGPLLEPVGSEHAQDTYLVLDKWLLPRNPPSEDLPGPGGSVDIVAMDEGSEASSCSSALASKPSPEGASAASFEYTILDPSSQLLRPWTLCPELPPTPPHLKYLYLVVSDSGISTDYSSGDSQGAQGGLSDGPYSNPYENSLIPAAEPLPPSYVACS

human glycophorin A [1] = target: T2, human glycophorin A (human, UniProt P02724 20-150); assay: column 'Binding strength' of Table 1, format scFv; method not stated
T2 construct: Native protein on human red blood cells (and TF-1 cells); also called GYPA; huGYPA
T2 sequence: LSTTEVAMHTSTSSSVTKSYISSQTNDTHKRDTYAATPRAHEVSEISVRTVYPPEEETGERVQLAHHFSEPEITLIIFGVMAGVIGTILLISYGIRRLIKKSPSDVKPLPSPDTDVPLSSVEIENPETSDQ

human glycophorin A [2] = target: T2, human glycophorin A; assay: column 'Binding strength' of Table 1, format nanobody; method not stated

Darbepoetin (Amgen) (ligand) showed a TF-1 cell proliferation, EC50 relative to epoetin alpha (EPO receptor on cells) of 14.7 fold.

B1: 1C3 scFv (scFv)
scFv: EVRLLESGGGPVQPGGSLKLSCAASGFDFSRYWMNWVRRAPGKGLEWIGEINQQSSTINYSPPLKDKFIISRDNAKSTLYLQMNKVRSEDTALYYCARLSLTAAGFAYWGQGTLVTVSAGGGSSGGSGSSGGSSSGGDIVMSQSPSSLAVSVGEKVSMSCKSSQSLFNSRTRKNYLTWYQQKPGQSPKPLIYWASTRESGVPDRFTGSGSGTDFTLTISSVQAEDLADYYCKQSYNLRTFGGGTKLEIK
Molecule B1 has a Kd (human glycophorin A [1]) of 30 nM.

B2: IH4v1 nanobody (VHH)
VHH: QVQLQESGGGSVQAGGSLRLSCVASGYTDSTYCVGWFRQAPGKEREGVARINTISGRPWYADSVKGRFTISQDNSKNTVYLQMNSLKPEDTAIYYCTLTTANSRGFCSGGYNYKGQGTQVTVS
notes: Camelid single-domain antibody with the added Thr118
For B2, the Kd (human glycophorin A [2]) was 30 nM.
